Laboratory results taken from the nanobody polyreactivity screen of Harvey et al. (2022).

Assay: yeast display, Sf9 membrane polyspecificity reagent, FACS + sequencing; frameworks hold sequencing errors
How it was run: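 Sorting gates, low and high (top ~1%), were placed on anti-HA fluorescence to track expression and on streptavidin fluorescence to track reagent binding. A clone's polyreactivity label is taken from the gate it came out of. The reagent was 10% biotinylated, detergent-solubilized Sf9 membrane, applied for 1 hour at 4 °C to galactose-induced yeast display cells.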

Sequence	polyreactivity (PSR sort gate)
QGQLVESRGGLVQAGGSLRLICAASGFIFFIKSMGWYRQAPGKERELVAAINWTGGSTYADSVKGRFTISRDNAKNTVYLQMNSLKPEDTAVYYCAADPWDIYRRLSQGDHDYWGQGTQVTVSS	low polyreactivity
QVQLVESGGGLVQAGGSLRLSCAASGRTFQRYAMGWYRQAPGKERELVAAITSSGGTTYYADSVKGRFTISRDNAKNTVYLQMYSMKPEDTAVYYCAARRITSRYDYWGQGTQVTVSS	high polyreactivity
QVQLVESGGGLVQAGGSLRLSCAASGITFWHNTMGWYRQAPGKERELVAAISWTGGRTYYADSVKGRFTISRDNAKNTVNFQMNSLNPEDTAVNYCAADFSWTPSGNYDSWGQGTQVTVSS	low polyreactivity
QVQLVESGGGLVQAGGSHRLSCAASGSTLGDYAMGWYRQAPGKERELVAAISNGVSTNYADSVKGRFTISRDNAKNTVYLQKNSLKPVDTAVYYCNAGSGWGSLLEYDYWGQGTKVTVSS	low polyreactivity
QVQLVESGGGLVQAGGRLRLSCAASGITFWSNALGWYRQAPGKERELVAAMTSGGNTNYADSVKGRFTISRDNAKNTVYLQMNSLKPEDTAVYYCATKQLLRRRQGYYWVGSKHDYWGQGTQVTVSS	high polyreactivity
QVQLVESGGGLVQAGGSLRLSCAASGITFYSNAMGWYRQAPGKERELVATITRGGSTYYADSVKGRFTISRDNAKNTVYLQMNSLKPEDTAVYYCAADYSYRGREYGYWGQVTQVTVSS	low polyreactivity
QVQLVESGGGLVQAGGSLRLSCAASGYTIYQYAMGWYRQAPRKERELVAAISSDASTSYADSVKGRFTISRDNAKNTVYLQMNSLKPEDTAVYYCAADPGPYYDWGYDYWGQGTQVTVSS	low polyreactivity
QVQLVESGGGLVQAGGSLRLSCAASGRTFYPYAMGWYRQAPGKERELVARITSGGSTYADSVKGRFTISRDNAKNTVYLQMNSLKPEDTAVYYCNTDGYLLSRYPYSVQLYEYWGQGTQVTVSS	high polyreactivity
QVQLVESGGGLVQAGGSLRLSCAASGYIFDLNPMGRYRQAPGKERELVAAISTGGGTYYADSVKGRFTISRDNAKNTVYLQMNSLKPEDTAVYYCAADWGYWYAEYDYWGQGTLVTVSS	low polyreactivity
QVQLVESGGGLVQAGGSLRLSSAASGIIFGGSAMGWYRQAPGKEWELVAAISRSGGSTYYADSVKGRFTISRDNPKKTVYLQMNSLKPEDTAVYYCNAVPRRKGFNYWGQGTQVTVSS	high polyreactivity
QVQLVESGGGLVQAGGSLRLSCAASGSTFYKYAMGGYRQAPGKERELVAAISTRGGSTYYADSVKGRFTISRDNAKNTVYLQMNSLKPEDTAVYYCAADGSGGHDDYWGQGTQVTVSS	high polyreactivity
QVQLVESGGGLVQAGGSLRLSCAASGLTFYIYAMGWYRQAHGKERELVASISSSGGITYYADSVKGRFTISRDNAKNTVYLQMNSLKPEDTAVYYCAATYSHRRGDYWGQGTQVTVSS	high polyreactivity
QVQLVESGGGLVQAGGSLRLSCAASGFIFRDNAMGWYRQAPGKERELVAASSSRGGSTYYADSVKGRFTISRDNAKNTVYLQMNSLKPEDTAVYYCAKRPYKYRVQLDSWGPGTQVTVSS	high polyreactivity
QVQLVESGGGLVQAGGSLRLSCAASGRILGYYAMGWYRQAPGKERELVAAISSGDSTNYADSVKGRFTISRDNAKNTVYLQMNSLKPEDTAVYYCAAKGWIWNPYNYWGQGTQVTVSS	low polyreactivity
QVQLVESGGGLVQAGGSLRLSCAASGRIFTWYAMGWYRQAPGKERELVAAISWSGGRTYYADSVKGRFTISRDYSKNTVYLQMNSLKPEVTAVYYCAAREPGRTLDYLGQGTQVTVSS	high polyreactivity
QVQLVESGGGLVQAGGSLRLSCAASGRTFHHNAMGWYRQAPGKERELVATITAGSGSTYYADSVKGRFTISRDNAKNTVYLQMNSQKPEDTAVYYCAARVGWNKRRYDYWGQCTQVTVSS	low polyreactivity
QVQLVESGGGLVQAGGSLRLSCAASGITFDGNAMGWYRQAPGKERELVAAITSGGSTYYADSVKGRFTISRDNAKNTVYLQMNSLKPEDTAVYYCAKEPPPVKGDYWGQGTQVTVSS	low polyreactivity
QVQHVESGGGLVQAGGSLRLSCAASGSTLGGYVMGWYRQAPGKERELVASITYSGGSTRYADSVKGRFTISRDNAKNTVYLQMNSLKPEDTAVYYCAAGAQRTYYTYSFRRVGYDYDYWGQGTQVTVSS	low polyreactivity
HVQLVESGVGFVQAGGSLRLSCASSGSIFQAYAMGWYRQAPGNERELVAAISDSGGSTYYADSVKGRFTISRDNAKNTVYLQMNSLKPEDTEVYYCAADVYTRFWRVYRVDYWGQGTQVTVSS	low polyreactivity
QVQLVESGGGLVQAGGSLRLSCAASGRILPWYAMGWYRQAPGKERELVARIRSTDSTNYADSVKGRFTISRDNAKNTVYLQMNSLKPEDTAVYYCAKVQWGFPYAWLGSDYWGQGTQVTVSS	low polyreactivity
QVQLVESGGGLVHAGGSLRLSCAASGYTFPLYAMGWYRQAPGKERELVADINIGGASTYYADSVKGRFTISRDNAKNTVYLQMNSLKPEDTAVYYCAKEYYDGYFPTFDYDYWGQGTQVTVSS	low polyreactivity
QVQLVESGGGLVQEGGSLRLSCAASGITFAFYTMGRYRQAPGKERELVAAISYSGGRTYYADSVKGRFTISRDNAMNTVYLQMNSLKAEDTAVYYCAVETWWDYDYWGQGTQVTVSS	high polyreactivity

Sequence	polyreactivity (PSR sort gate)
QVQLVESGGGLVHAGGSIRLSCAASGRIFGYYTMGWYRQAPGKERELVAAIRGNGGSTYYADSVKGLFTISRDNAKNTVYLQMHSLKPQDTAVYYCAATDISYRRVPYGRKKQYDYWGQGTQVTVSS	high polyreactivity
QVQLVESGGGLVQAGGSLRLSCAASGGIFKKYAMGWYRQAPGKERELVAVITSGGRTNYADSVKGRFTISRDNAKNTVYLLMNSLKPEDTAVYYCAAVYVTGSYRYGYWGQGSQVTVSS	high polyreactivity
QFQLVESVRGLVQAGVSLRLSCAASGSTFNFYAMGLYRQPPGKERELVAAIRQSSGRTYYADSVKGRFTISRDNGNYTVYLQMNSLKPEDTAVYYCAAVRYNFNFKMYYWGQGTQVTVSS	high polyreactivity
QVQHVESGGGLVQAGGSLRLSCAASGRIIRRNARGSYRLAPGKERELVAAISWSGGSTYYADSVKGRFTISRDNAKNSVDLQMNSLKQEDTAVYYCAAVPCYTGDYWGQGTQVTVSS	low polyreactivity
QVQLVESGGGLVQAGGSLRLSFAASGGIFWHYTRGWYRQAPGKERELVAAITRRGGSTYYADSVKGRFTISRDNAKNTVYLQMNSLKPEDTAVYYCAADFLPQSYNWYDYWGQGTQVTVSS	low polyreactivity
QVQLVESGGGLVQAGGSLRLSCAASGRTFVPDVMGWYRQAPGKERELVAAITSGGSTYYADSVKGRFTISRDNAKNTVYLQMNSLKPEDTAVYYCAKRTSWKYGYWGQGTQVTVSS	high polyreactivity
QVQLVESGGGLVQAGGSLRLSCAASGRTFNTYAMGWYRQAPGKERELVADISVSGGRTYYADSVKGRFTISRDNAKNTVYLQMNSLKPEDNAVYYCAKRIRYNWTFDYWGQGTQVTVSS	low polyreactivity
QVQLVESGGGLVQAGGSLRLICAASGLTLYPYAMGWYRQAPGKERELVAAISGAGTRTYYADSVKGRFTISRDNAKNTVYLQMNSLKPEDTAVYYCAAVGFRPYDYWGQGTQLTVSS	high polyreactivity
QVQLVESGGGLVQAGGSLRLSCAASGSTFTVNDMGWYRQAPGKERELVAAITQRDGRTFYADSVKGRFTISRDNAKNTVYLQINSLKPEDTGVYYCAADYGWYTYGDYDYWGQGTQVTVSS	low polyreactivity
QVQLVESGGCLVQAGGSLRLSCAASGFTFYAYTMGWYRQAPGKERELVAAITKTGSRTYYADSVKGRFTISRDNAKNTVYLQMNSLKPEDTAVYYCAAASYIRVKGISRYDSWGQGTQVTVSS	high polyreactivity
QVQLVESGGCIVQAGGSLRLSCAASGNIFAYNGKVWYRQAPGKERELVAAIRGSGTRTYYAESVKGRFTISRDNAKNTVYLHMNSLKPEDTAVYYCSARYFGTARTNYGYWGQGTQVTVSS	high polyreactivity
QVQLVESGGGLVQAGGSRRLSCAACGFIFEKNAMGWYRQAPGKERELVAAISGGGITNYADSVKGRFTISRDNEKKTVYLHMNSLKPQDTAVYYCAKTRRRLLTRYDYWGQGTQVTVSS	low polyreactivity
QVQLVESGGGLVQAGGSLRLSCAASGRTFRKYGMGWYRPAPGTERELVAAITRSGGSTYYADSVKGRFTISRDNAKNTVYLQMNCLKPEDTSVYYCARSPVVVGSFLSYDYLGQGTQVTVSS	high polyreactivity
HVQLVESGRGLVQAGGSLRLSCAASGSTFPFYDRGWYRQAPGKERQLVDAITASVGNTYYADSVKGRFTISRDNAKNTVYLQMNSLKPEDTAVYYCNADELYTYIPDFDYWGQGSQVTVSS	low polyreactivity
QVQLVESGGGLVEAGGSLRLSCAASASIFGLNAMGWYRQAPGKEREFVAAISWSDGSTYYADSVKGRFTISRDNAKNTVYLQMNSLKPEDTAVYYCSKATEYYAESDDYDYWGQGTQVTVSS	low polyreactivity
QVQLVESGGGLVQAGGSLRLSCAASGSTFSLYAMGWYRQAPGKERELVAAITYSGTSTYYADSVKGRFTISRDNAKNTVYLQMNSLKPEDTAVYYCNVESWGGHDFTWAVTSGGYWGQGTQVTVSS	low polyreactivity
QVQLVESGGGLVQEGGSLRLSCAASGYTFGRYFMGWYRQAPGKEREFVAAISRGGGSTYYADSVKGRFTISRDNAKNTVYLQMNSLKPEDTAVYYCDTRSSNAEYWGQGTQVTVSS	high polyreactivity
QVQLGESAGGLVQAGGSLRLSCAATGRTFRWYTMGWYRQAPGKERELVAGIRSTGGSTYYADSVKGRFTISRDNAKNTVYLQMNSLKPEDTEVYYCAIVTLTSRYASYYYWGQGTQVTVSS	high polyreactivity
QVQLVESGGGLVQAGGSLRITCAASGIIFGSYAMGWYRQAPGKETELVAAISTSGGSTYYADSVKGRFTISRDNAKNTVYLQMNSLKPEDTAVYYCNKAGVYRDSSRYNYWGQGTQVTVSS	high polyreactivity
QVQLVESGGGLVQAGGTLRISCAASGSIFYLYAMGWYRQAPGKERELVAGIRYRGGSTYYADSVKGRFTISRDNAKNTVYLQMNSLKPEDTAVYYCAAEYGDGRYWSYDYWGQGTQVTVSS	high polyreactivity
QVQLVQSGGGLVQAGGSLRLSCAASQNAMGWYRQAPGKERELVAAISKGGGRTYYADSVKGRFTISRDNAKNTVYLQMNSLKPEDTAVYYCNARYYSSQDADRHEYWGQGTQVTVSS	high polyreactivity
